Biological target: the molecule itself
Experiment: cryo-EM structure

B1: Arf1-GTP (natural protein)
chain: not shown
In the case of B1, the “stoichiometry N” value is reported as 3.

Source: doi:10.1101/276733 (bioRxiv, 2018)
